Data: PMC6061704 (Nucleic Acids Research, 2018)

Columns and labels:
[1] = target: T1, N-terminal His-tagged SisHjm (Hjm/Hel308a helicase from Sulfolobus islandicus) (Sulfolobus islandicus, UniProt F0NDL2 1-715); experiment: SEC
T1 sequence (looked up): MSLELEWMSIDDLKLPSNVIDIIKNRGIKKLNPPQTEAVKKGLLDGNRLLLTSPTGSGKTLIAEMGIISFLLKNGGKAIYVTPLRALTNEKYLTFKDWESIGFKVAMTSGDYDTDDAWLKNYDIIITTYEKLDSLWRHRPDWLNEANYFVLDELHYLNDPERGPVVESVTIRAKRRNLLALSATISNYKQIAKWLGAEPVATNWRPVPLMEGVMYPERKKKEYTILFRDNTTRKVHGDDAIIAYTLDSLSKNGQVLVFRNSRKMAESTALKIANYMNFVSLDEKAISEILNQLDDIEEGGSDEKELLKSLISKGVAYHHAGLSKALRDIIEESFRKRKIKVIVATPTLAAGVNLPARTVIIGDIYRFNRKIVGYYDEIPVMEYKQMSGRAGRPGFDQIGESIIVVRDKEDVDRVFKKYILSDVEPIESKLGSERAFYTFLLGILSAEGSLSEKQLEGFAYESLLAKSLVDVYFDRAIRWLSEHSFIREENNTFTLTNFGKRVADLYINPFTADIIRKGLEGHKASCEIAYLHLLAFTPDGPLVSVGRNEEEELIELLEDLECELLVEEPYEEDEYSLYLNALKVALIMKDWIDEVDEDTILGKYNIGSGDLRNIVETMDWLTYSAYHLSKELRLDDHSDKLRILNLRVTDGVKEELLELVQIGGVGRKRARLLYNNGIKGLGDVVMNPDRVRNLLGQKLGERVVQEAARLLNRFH

SEC = target: the molecule itself; experiment: SEC

B1: SisPINA (PIN domain-containing ATPase from Sulfolobus islandicus), recombinant, without tag (enzyme, UniProt F0NID4 1-505, looked up)
chain: MNDLMLDKSALLFGVSKYLEKGIITGNVLIHKSLLAELERESNDGLVSAEIALDEVKKLKDITERILVNFEIVGDDSKKGEANELSREYCLEKGCIIVTADETQKKICDAMGIQYNFLQPLKQGLSFESFFDDETMSLHIKEDTVPRAKKGKPGNWKFVNLSDKPMLSTDVRMIANEIINAVRLIKGSFVEIERRGSLIIQLGNYRVVITRPPLSDGWEITITRPVVRKRLEDYNLDERLIKRLEERAEGIIIAGAPGMGKTTFAQALAEYYMRLGKIVKTIESPRDMHLPPEITQYSKNYAEIGELHDILLLSRPDYTVYDEMRNDEDFKLYVDLRLAGVGMVGVVHATSPIDAIHRFVNRVDIGTIPNILDTIIFINSGNVSKVYTLEMTVKVPAGLKEADLARPVVEIKDLATGNTEYEIYVFGEQTMIVPVNRGITMSNMEFKISKIVNNIIPNATVKYEDGEYVIVIPKEEIGKYNRKLVQRLKRLEKKNNIKIKIKLSD
[1]
  stoichiometry N: ~1 Hjm monomer per PINA hexamer
SEC
  stoichiometry N: 6
